Assay results reported in patent publication US7495068B2, “Antiangiogenic peptides, polypeptides encoding same and methods for inhibiting angiogenesis” (Abbott Laboratories, priority 1996, dated 2009).

Experiments:
[1] = system: BCE Cells; conditions: rows marked *: data taken from Marti et al. 1994; cited from earlier work
[2] = system: BCE Cells; assay: Endothelial proliferation assay (bFGF-stimulated); format: cell-based, bovine
Method: The in vitro proliferation of endothelial cells was determined as described by Lingen, et al., in Laboratory Investigation, 74: 476-483 (1996), which is hereby incorporated herein by reference, using the Cell Titer 96 Aqueous Non-Radioactive Cell Proliferation Assay kit (Promega® Corporation, Madison, Wis.). Bovine capillary (adrenal) endothelial cells were plated at a density of 1000 cells per well in a 96-well plate in Dulbecco's Modified Eagle Medium (DMEM) containing 10% donor calf serum and 1% BSA (bovine serum albumin, GIBCO® BRL, Gaithersburg, Md.). After 8 hours, the cells were starved overnight in DMEM containing 0.1% BSA then re-fed with media containing specified concentrations of inhibitor and 5 ng/mL bFGF (basic fibroblast growth factor). The results of the assay were corrected both for unstimulated cells (i.e. no bFGF added) as the baseline and for cells stimulated with bFGF alone (i.e. no inhibitor added) as the maximal proliferation. When multiple experiments were combined, the results were represented as the percent change in cell number as compared to bFGF alone.
The effect of kringle 5 peptide fragments on endothelial cell proliferation was determined in vitro using the above described endothelial cell proliferation assay. […]

Molecule | Antiproliferative Activity of BCE Cells (ED50) [1] | fold increase in activity at inhibiting BCE cell proliferation compared to kringle 1-4 peptide fragments ([2]; vs kringle 1-4 peptide fragments) [fold] | fold increase in activity at inhibiting BCE cell proliferation compared to kringle 5 fragment 443-546 of SEQ ID NO:1 ([2]; vs kringle 5 (443-546)) [fold]
kringle 4 (Val^354-Val^443): kringle 4 fragment of plasminogen, SEQ ID NO:1 (protein, listed as Homo sapiens) VVQDCYHGDGQSYRGTSSTTTTGKKCQSWSSMTPHRHQKTPENYPNAGLTMNYCRNPDADKGPWCFTTDPSVRWEYCNLKKCSGTEASVV | no activity | – | –
kringle 2 (Glu^161-Thr^245): kringle 2 fragment of plasminogen, SEQ ID NO:1 (protein, listed as Homo sapiens) ECEEECMHCSGENYDGKISKTMSGLECQAWDSQSPHAHGYIPSKFPNKNLKKNYCRNPDRELRPWCFTTDPNKRWELCDIPRCTT | no activity | – | –
kringle 5 (Val^443-Ala^543): kringle 5 peptide fragment, amino acid positions 443-543 of human plasminogen (SEQ ID NO:1) (protein, listed as Homo sapiens) VAPPPVVLLPDVETPSEEDCMFGNGKGYRGKRATTVTGTPCQDWAAQEPHRHSIFTPETNPRAGLEKNYCRNPDGDVGGPWCYTTNPRKLYDYCDVPQCAA | – | ~800 | ~300
